# Experiments:
# LinClpA [1] = molecular target: T1, LinClpA (Leptospira interrogans, UniProt Q8F4D7); assay: ANS fluorescence change on oligomerization; type: binding; details: 2 mM nucleotide, 3 μM protein, 10 μM ANS, 8 mM MgCl2, pH 7.8; indirect, oligomerization read-out
# T1 construct: gene clpA; full length, 740 residues, C-terminal 6xHis tag (pET-23a), E. coli BL21 (DE3), Ni-NTA; monomer ~82 kDa, ~492 kDa oligomer with ATP
# T1 sequence (Q8F4D7 19-758): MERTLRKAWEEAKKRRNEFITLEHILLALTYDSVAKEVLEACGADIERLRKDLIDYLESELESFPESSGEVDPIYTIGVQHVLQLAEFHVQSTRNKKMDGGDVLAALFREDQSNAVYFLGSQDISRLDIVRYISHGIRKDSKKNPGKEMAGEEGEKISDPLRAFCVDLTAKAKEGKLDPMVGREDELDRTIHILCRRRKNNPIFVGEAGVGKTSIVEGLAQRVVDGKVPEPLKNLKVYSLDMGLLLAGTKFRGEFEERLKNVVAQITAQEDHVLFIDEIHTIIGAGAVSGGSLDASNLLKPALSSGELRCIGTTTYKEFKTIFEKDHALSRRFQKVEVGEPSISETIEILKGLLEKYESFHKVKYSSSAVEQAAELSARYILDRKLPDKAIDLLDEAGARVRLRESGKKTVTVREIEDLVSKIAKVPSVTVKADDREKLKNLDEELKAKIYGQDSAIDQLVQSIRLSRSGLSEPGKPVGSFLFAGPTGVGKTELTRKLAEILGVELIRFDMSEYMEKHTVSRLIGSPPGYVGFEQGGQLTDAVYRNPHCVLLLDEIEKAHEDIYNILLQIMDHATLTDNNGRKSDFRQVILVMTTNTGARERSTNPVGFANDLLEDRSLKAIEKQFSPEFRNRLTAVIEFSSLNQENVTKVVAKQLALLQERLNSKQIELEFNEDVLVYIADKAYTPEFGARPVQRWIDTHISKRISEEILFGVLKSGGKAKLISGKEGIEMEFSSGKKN
# Protocol: ANS fluorescence change on oligomerization on LinClpA | pre-incubation of LinClpA with ADP, PolyP or ATP led to reductions in ANS fluorescence
# LinClpA [2] = molecular target: T1, LinClpA; assay: ANS fluorescence change on oligomerization (also size-exclusion chromatography); type: binding; details: 2 mM nucleotide, 3 μM protein, 10 μM ANS, 8 mM MgCl2, pH 7.8; indirect, oligomerization read-out
# LinClpA [3] = molecular target: T1, LinClpA; assay: malachite green phosphate release; type: biochemical; details: 8 mM Mg2+, pH 7.8, 37°C, 1 μM enzyme
# LinClpA [4] = molecular target: T1, LinClpA; assay: ANS fluorescence change on oligomerization; type: binding; details: 2 mM nucleotide, 3 μM protein, 10 μM ANS, 8 mM MgCl2, pH 7.8; indirect, oligomerization read-out; remark: listed apart in the source
# ClpS (Escherichia coli) = ClpS (Escherichia coli) (UniProt P0A8Q6); details: cited from earlier work
# [5] = molecular target: LinClpP2 (ClpP2 isoform of the Clp protease of Leptospira interrogans) (L. interrogans) (UniProt Q72R01); assay: ELISA; LinClpP1, LinClpP2, LinClpS1 or LinClpS2 (1 μM/well) coated overnight at 4°C; blocked with 3% BSA in PBS; ATP-bound LinClpA or LinClpA^∆N (0–3 μM) overlaid 2 hours at 37°C; detected with mouse anti-LinClpA; Kd by Hill plot analysis
# [6] = molecular target: LinClpS2 (Clp adaptor protein ClpS2 of Leptospira interrogans) (L. interrogans serovar Copenhageni strain Fiocruz L1-130) (UniProt Q72RD1); assay: as above
# Chain of LinClpS2 (Clp adaptor protein ClpS2 of Leptospira interrogans) (L. interrogans serovar Copenhageni strain Fiocruz L1-130) (Q72RD1 whole entry, canonical isoform): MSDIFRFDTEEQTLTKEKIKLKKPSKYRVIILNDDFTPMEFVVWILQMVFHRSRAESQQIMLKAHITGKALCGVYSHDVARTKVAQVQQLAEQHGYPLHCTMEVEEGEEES
# [7] = molecular target: LinClpP1 (ClpP1 isoform of the Clp protease of Leptospira interrogans) (L. interrogans) (UniProt Q72SG6); assay: as above
# [8] = molecular target: LinClpS1 (Clp adaptor protein ClpS1 of Leptospira interrogans) (L. interrogans serovar Copenhageni strain Fiocruz L1-130); assay: as above
# [9] = molecular target: LinClpA (ClpA ATPase chaperone of Leptospira interrogans) (L. interrogans serovar Copenhageni strain Fiocruz L1-130); assay: ANS dye-binding fluorescence; LinClpA (3 μM) pre-incubated with ATP, GTP, CTP, UTP, ADP or PolyP (2 mM) 20 minutes at 4°C, then ANS (10 μM); excitation 350 nm, emission 400-750 nm; less ANS fluorescence read as oligomerization
# [10] = molecular target: LinClpS2 (Clp adaptor protein ClpS2 of Leptospira interrogans) (L. interrogans serovar Copenhageni strain Fiocruz L1-130) (UniProt Q72RD1)
# [11] = molecular target: LinClpS1 (Clp adaptor protein ClpS1 of Leptospira interrogans) (L. interrogans serovar Copenhageni strain Fiocruz L1-130)
# [12] = molecular target: LinClpS2 (Clp adaptor protein ClpS2 of Leptospira interrogans) (L. interrogans serovar Copenhageni strain Fiocruz L1-130) (UniProt Q72RD1); remark: listed apart in the source
# [13] = molecular target: LinClpS1 (Clp adaptor protein ClpS1 of Leptospira interrogans) (L. interrogans serovar Copenhageni strain Fiocruz L1-130); remark: listed apart in the source
# Chain of ClpA (P0ABH9 whole entry): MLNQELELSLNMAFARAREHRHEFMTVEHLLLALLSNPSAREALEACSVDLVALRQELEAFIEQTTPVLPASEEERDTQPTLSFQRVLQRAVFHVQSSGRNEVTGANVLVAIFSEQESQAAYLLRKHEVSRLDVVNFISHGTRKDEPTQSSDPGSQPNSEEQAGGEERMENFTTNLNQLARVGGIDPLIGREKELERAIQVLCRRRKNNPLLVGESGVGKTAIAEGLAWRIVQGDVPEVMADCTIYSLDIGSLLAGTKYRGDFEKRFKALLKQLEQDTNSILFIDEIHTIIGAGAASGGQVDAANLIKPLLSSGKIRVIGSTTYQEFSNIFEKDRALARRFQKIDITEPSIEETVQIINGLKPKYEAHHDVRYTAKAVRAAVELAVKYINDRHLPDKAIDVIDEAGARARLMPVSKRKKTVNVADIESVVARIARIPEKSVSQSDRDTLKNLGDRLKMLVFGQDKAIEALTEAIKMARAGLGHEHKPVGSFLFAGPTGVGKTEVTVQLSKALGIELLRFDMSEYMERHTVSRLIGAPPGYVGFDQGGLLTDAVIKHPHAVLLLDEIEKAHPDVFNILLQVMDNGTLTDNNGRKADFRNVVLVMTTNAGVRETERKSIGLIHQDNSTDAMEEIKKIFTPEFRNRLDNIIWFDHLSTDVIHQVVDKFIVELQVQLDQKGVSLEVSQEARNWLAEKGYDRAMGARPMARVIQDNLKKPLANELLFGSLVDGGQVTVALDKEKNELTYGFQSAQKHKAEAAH
molecule,measurement,setting,value
Nc1ncnc2c1ncn2[C@@H]1O[C@H](COP(=O)(O)OP(=O)(O)O)[C@@H](O)[C@H]1O [ADP],"ANS fluorescence, % of pure LinClpA",LinClpA [1],65%
Nc1ncnc2c1ncn2[C@@H]1O[C@H](COP(=O)(O)OP(=O)(O)OP(=O)(O)O)[C@@H](O)[C@H]1O [ATP],"ANS fluorescence, % of pure LinClpA",LinClpA [2],50%
same,malachite green phosphate release,LinClpA [3],LinClpA primarily utilizes ATP as its substrate
Nc1ccn([C@@H]2O[C@H](COP(=O)(O)OP(=O)(O)OP(=O)(O)O)[C@@H](O)[C@H]2O)c(=O)n1 [CTP],ANS fluorescence change on oligomerization,LinClpA [4],"can interact with various nucleotides, including GTP, CTP and UTP, in addition to ATP"
Nc1nc2c(ncn2[C@@H]2O[C@H](COP(=O)(O)OP(=O)(O)OP(=O)(O)O)[C@@H](O)[C@H]2O)c(=O)[nH]1 [GTP],ANS fluorescence change on oligomerization,LinClpA [4],"can interact with various nucleotides, including GTP, CTP and UTP, in addition to ATP"
O=c1ccn([C@@H]2O[C@H](COP(=O)(O)OP(=O)(O)OP(=O)(O)O)[C@@H](O)[C@H]2O)c(=O)[nH]1 [UTP],ANS fluorescence change on oligomerization,LinClpA [4],"can interact with various nucleotides, including GTP, CTP and UTP, in addition to ATP"
ClpA (from UniProt P0ABH9),Kd,ClpS (Escherichia coli),330 nM
LinClpA (ClpA ATPase chaperone of Leptospira interrogans) (enzyme),Kd,[5],280 nM
same,Kd,[6],320 nM
same,Kd,[7],280 nM
same,Kd,[8],440 nM
same,"ANS fluorescence intensity with ADP, percent of pure LinClpA",[9],65%
same,"ANS fluorescence intensity with ATP, percent of pure LinClpA",[9],50%
same,"ANS fluorescence intensity with PolyP, percent of pure LinClpA",[9],55%
same,"degradation of eGFP-SsrA (2 μM) by the LinClpAP1P2 machinery (3 µM) after 60 minutes with LinClpS2 5, 10 and 15 µM, percent of the machinery without adaptor; value at 5 µM; total suppression at 10 µM (% of LinClpAP1P2 activity)",[10],39
same,"degradation of eGFP-SsrA (2 μM) by the LinClpAP1P2 machinery (3 µM) after 60 minutes with LinClpS1 5, 10 and 15 µM, percent of the machinery without adaptor; value at 5 µM; total suppression at 15 µM (% of LinClpAP1P2 activity)",[11],53
same,"ATPase activity of LinClpA (1 μM, malachite green) with LinClpS2 1–10 μM; dose-dependent inhibition; percent reduction at 10 μM",[12],90 % reduction
same,"ATPase activity of LinClpA (1 μM, malachite green) with LinClpS1 1–10 μM; dose-dependent inhibition; percent reduction at 10 μM",[13],57 % reduction
LinClpA^∆N (N-domain-deleted variant of LinClpA) (domain or fragment),Kd,[5],280 nM
same,Kd,[7],280 nM

# — paper PMC12493166, “The ClpA chaperone and the two adaptor proteins modulate the fate of the model substrate tagged with a SsrA-degron of Leptospira” (Biochemical Journal, 2025)
